test system: C57BL/6 mice given hANGPTL4-mFc; format: in vivo; conditions: antibody 5 mg/kg s.c.; 24 h later hANGPTL4-mFc 25 μg/mouse i.v.; bled 30 min after; mean±SEM
Procedure: In another set of experiments, selected anti-hANGPTL4 antibodies were tested for their ability to inhibit hANGPTL4-induced increase of triglyceride levels. Measurements of total cholesterol, LDL, NEFA-C and HDL were also made. Briefly, C57BL/6 mice were put into groups of five mice each for each antibody tested. Antibodies were administered at 5 mg/kg dose by subcutaneous injection. Control group I, i.e., mice that received neither anti-hANGPTL4 antibodies nor hANGPTL4, were administered with PBS. Twenty-four hours post-injection of antibody, hANGPTL4-mFc (SEQ ID NO:480) was administered (i.v.) at a dose of 25 μg/mouse to each antibody group. Mice were bled at 30 min after hANGPTL4-mFc injection and lipid levels were determined by ADVIA® 1650 Chemistry System (Siemens). Averages were calculated for each of the measurements of triglycerides, total cholesterol (Total-C), LDL, NEFA-C and HDL for each antibody or control group. Levels of circulating anti-hANGPTL4 antibodies (Serum Ab) were also determined using a standard ELISA assay. Briefly, plates were coated with a goat anti-human Fc antibody (Sigma-Aldrich) to capture Serum Ab. Serum was then added to the plates and captured anti-hANGPTL4 antibodies were detected by chemiluminescence using a horseradish peroxidase (HRP) conjugated goat anti-human IgG antibody (Sigma-Aldrich). Control I: Mice that received PBS, but neither anti-hANGPTL4 antibodies nor hANGPTL4-mFc. Control II: Mice that received a human antibody specific for CD20 (i.e., the mAb having the sequence of 2F2 clone disclosed in US 2008/0260641) and hANGPTL4-mFc.

Molecule	HDL [mg/dL]	LDL [mg/dL]	NEFA-C [mg/dL]	Total-C [mg/dL]	Triglycerides [mg/dL]
H1H257P: anti-hANGPTL4 antibody, HCVR/LCVR SEQ ID NOs 18/20 (antibody, V domains shown) VH: EVQLVESGGGLVQPGGSLRLSCAASGFTFSSYDMHWVRQVAGKGLEWVSAIGTAGDTYYPVSVKGRFTISRENAKNSLYLHMNSLRAGDTAVYFCARGDSRNYYVGDYFDYWGQGTLVTVSS VL: DIQMTQSPSTLSASVGDRVTITCRASQSISRWLAWYQQKPGKAPKVLIYQASNLESGVPSRFSGSGSGTEFTLTISSLQPDDFATYYCQQYDSYSRAFGRGTKVEIK	41.38 ± 3.24	5.30 ± 0.36	0.97 ± 0.03	84.40 ± 3.53	115.80 ± 6.43
H1H283P: anti-hANGPTL4 antibody, HCVR/LCVR SEQ ID NOs 66/68 (antibody, V domains shown) VH: EVQLVESGGGLVQPGGSLRLSCAASGFTFSSYDMHWVRQVAGKGLEWVSAIGTAGDTYYPVSVKGRFTISRENAKNSLYLHMNSLRAGDTAVYFCARGDSRNYYVGDYFDYWGQGTLVTVSS VL: DIQMTQSPSTLSASVGDRVTITCRASQSISRWLAWYQQKPGKAPKVLIYKASNLESGVPSRFSGSGSGTEFTLTISSLQPDDFATYYCQQYNSYSRTFGQGTKVEIK	40.30 ± 0.72	4.62 ± 0.39	1.13 ± 0.05	75.80 ± 1.53	113.60 ± 8.74
H1H292P: anti-hANGPTL4 antibody, HCVR/LCVR SEQ ID NOs 162/164 (antibody, V domains shown) VH: EVQLVESGGGLVQPGGSLRLSCVASGFTFSSYDMHWVRQLPGKGLEWVSAIGVAGDTYYPASVKGRFTISRENAKNSLYLQMNSLRAGDTAVYYCARGDSGNYYDGDYFDFWGQGTLVTVSS VL: DIQMTQSPSTLSASVGDRVTITCRASQSINRWLAWYQQKPGKAPKVLIYKASNLESGVPSRFSGSGSGTEFTLTISSLQPDDFATYYCQQYDSYFRTFGQGTKVEIK	39.44 ± 1.68	3.96 ± 0.15	1.06 ± 0.06	74.40 ± 2.11	85.80 ± 7.00
H1H285P: anti-hANGPTL4 antibody, HCVR/LCVR SEQ ID NOs 114/116 (antibody, V domains shown) VH: EVQLVESGGGLVQPGGSLRLSCAASGFTFSRYDMHWVRQVTGKGLEWVSGIGTAGDTYYPGSVKGRFTISRENDKNSLYLQMNSLRVGDTAVYYCARGDSKNYYVGDYFDYWGQGTLVTVSS VL: DIQMTQSPSTLSASVGDRVTFTCRASHSIGNWLAWYQQKPGKAPKVLIYEASSLEDGVPSRFSGSGSGTEFTLTISSLQPDDFATYYCQQYDTYFRTFGQGTKVEIK	42.20 ± 0.91	3.72 ± 0.44	0.97 ± 0.06	76.40 ± 1.75	91.40 ± 11.99
H1H291P: anti-hANGPTL4 antibody, HCVR/LCVR SEQ ID NOs 138/140 (antibody, V domains shown) VH: EVQLVESGGGLVQPGGSLRLSCAASGFTFSTYDMHWVRQGLGKGLEWVSAIGSAGDTYYPGSVKGRFTISRDNAKSSLFLHMNSLRAGDTALYYCARGDSRNYFVGDYFDYWGQGTLVTVSS VL: DIQMTQSPSTLSASIGDRVTITCRASQSISSWLAWYQQKPGKAPKVLIYKASSLEAGVPSRFSGSGSGTEFTLTISSLQPDDFASYYCQQYSSYSRTFGQGTKVEIK	38.24 ± 2.14	3.84 ± 0.12	1.11 ± 0.04	71.20 ± 3.26	111.00 ± 7.51
H1H638P: anti-hANGPTL4 antibody, HCVR/LCVR SEQ ID NOs 258/260 (antibody, V domains shown) VH: EVQLVESGGGLVQPGGSLRLSCVASGFTFSSYDMHWVRQVAGKGLEWVAAIGTAGDTYYPVSVKGRFTISRENAKNSLSLHMNSLRAGDTAVYYCARGDSRNYYVGDYFDYWGQGTLVTVSS VL: DIQMTQSPSTLSASVGDRVTITCRASQSISRWLAWYQQKPGKAPKVLIYKASSLKSGVPSRFSGSGSGTEFTLTISSLQSDDFATYYCQQYNSYSRTFGQGTKVEIK	39.54 ± 1.65	4.14 ± 0.18	1.06 ± 0.05	73.80 ± 2.78	102.80 ± 10.75
H1H236N2: anti-hANGPTL4 antibody, HCVR/LCVR SEQ ID NOs 458/394 (antibody, V domains shown) VH: EVQLVESGGGLVQPGRSLRLSCAASGFTFDDYAMHWVRQAPGKGLEWVSGISWNSGSIVYADSVKGRFTISRDNAKNSLYLQMNSLISEDTALYYCAKDESSSSGNWFDPWGQGTLVTVSS VL: EVVMTQSPATLSVSPGERATLSCRASQSVSSNLAWYQQKPGQAPRLLIYGASTRATGIPARFSGSGSGTEFTLTISSLQSEDFAVYYCQEYNNWITFGQGTRLEIK	33.78 ± 1.13	4.26 ± 0.25	1.11 ± 0.18	72.40 ± 1.81	151.80 ± 9.26
H1H653P: anti-hANGPTL4 antibody, HCVR/LCVR SEQ ID NOs 306/308 (antibody, V domains shown) VH: QVQLVESGGGVVQPGRSLRLSCVASGFTFSSYGMHWVRQAPGKGLEWMAVIWYDGSNKYFADSVKDRFTISRDNSKNTLYLQMNTLRPDDTAVYYCVKADAPLLIYGVDVWGQGTTVTVS VL: DIQMTQSPSSLSASVGDRVTITCRASQGIRNDLGWYQEKPGKAPKRLIYFASSLQSGVPSRFSGSGSGTEFTLTISSLQPEDFATYYCLQHNSYPYTFGQGTKLEIK	40.10 ± 2.72	3.84 ± 0.32	1.04 ± 0.1	74.20 ± 4.49	88.00 ± 13.52
H1H295P: anti-hANGPTL4 antibody, HCVR/LCVR SEQ ID NOs 186/188 (antibody, V domains shown) VH: EVQLVESGGGLVQPGGSLRLSCAASGFTFSTYDMHWVRQAPGKGLEWVSAIGSAGDTYYPGSVKGRFTISRDNAKSSLFLQMNSLRAGDTALYYCARGDSRNYFVGDYFDYWGQGTLVTVSS VL: DIQMTQSPSTLSASVGDRVTITCRASQSIGTWLAWYQQKPGKAPKILIYKASSLEGGVPSRFSGSGSGTEFTLTISSLQPDDFANYYCQQYNSFYRTFGQGTKVEIK	39.70 ± 3.13	4.04 ± 0.40	1.12 ± 0.04	74.60 ± 4.82	104.80 ± 9.44
H1H624P: anti-hANGPTL4 antibody, HCVR/LCVR SEQ ID NOs 210/212 (antibody, V domains shown) VH: EVQLVESGGGLVQPGGSLRLSCAASEFIFSSYAMNWVRQAPGKGLEWVSVISGSGDSKYYADSVKGRFTISRDNSKNTLYLQMNSLRVEDTAVYYCAKDGKDRYGFYYNFYGMDVWGQGTTVTVS VL: DIQMTQSPSFLSASVGDRVTITCWASQGISSYLAWYQQKPGKAPKILIYAASTLQSGVPSRFSASGSGTEFTLTISSLQPEDFATYHCQQLNSYPFTFGPGTKVDIK	35.40 ± 2.68	4.36 ± 0.92	0.86 ± 0.07	72.80 ± 5.49	81.20 ± 9.26

Source: patent US9120851B2, “Human antibodies to human angiopoietin-like protein 4” (Regeneron Pharmaceuticals, Inc., priority 2009, dated 2015)
